Test results taken from patent US20110021367A1 (INDIAN INSTITUTE OF SCIENCE, published 2011).

B1: apo-RslA 1-108 (Zn2+ free, oxidized N-terminal domain of M. tuberculosis RslA), N-term His-tag (other)
chain: MTMPLRGLGPPDDTGVREVSTGDDHHYAMWDAAYVLGALSAADRREFEAHLAGCPECRGAVTELCGVPALLSQLDRDEVAAISESAPTVVASGLSPELLPSLLAAVHR
modifications: Zn2+ removed with H2O2 and TPEN; oxidized, one disulfide bond
notes: range 1-108; Same polypeptide as holo-RslA; for SPR made on the chip by passing 10 mM H2O2 and 2 mM TPEN over immobilized RslA; also called Zn^2+ free RslA; oxidized RslA; not shown: N-terminal His-tag from pET-Duet1 MCS1
B2: σ^L 1-177 (Mycobacterium tuberculosis sigma factor L, Rv0735), N-term His-tag (other)
chain: MARVSGAAAAEAALMRALYDEHAAVLWRYALRLTGDAAQAEDVVQETLLRAWQHPEVIGDTARPARAWLFTVARNMIIDERRSARFRNVVGSTDQSGTPEQSTPDEVNAALDRLLIADALAQLSAEHRAVIQRSYYRGWSTAQIATDLGIAEGTVKSRLHYAVRALRLTLQELGVTR
notes: range 1-177; also called SigL; Mtb σ^L; not shown: N-terminal His-tag from pET-Duet1 MCS1

Legend:
[1] = target: the molecule itself; assay: analytical gel filtration; dynamic light scattering
[2] = target: B2; assay: SPR (BIACORE 2000), immobilized RslA freed of Zn2+ with H2O2/TPEN, σ^L as analyte
[3] = target: B1; assay: as above

Binder | binding result [1] | Kd [2] | fold reduction in affinity against Zn2+ bound RslA [3]
B1 | binds | ~150 nM | 
B2 |  |  | 7 fold
